Experimental data from the MegaScale stability set (Tsuboyama et al. 2023).

B1: EHEE_rd2_0196 (parent)
chain: TETRTFDSEEEAKKAQKEAEKQGRTVTITRRDDRWEVRFD

Variants of: B1
Assay: folding stability dG (cDNA display proteolysis); higher = more stable
Settings: PBS, room temperature

Folding stability dG [kcal/mol], by site and new letter:
E18: F 2.32, S 2.38, W 2.63, Q 2.65, N 2.46, H 2.55, D 2.87, C 3, P 0.538, I 2.74, R 2.46, G 1.75, A 2.79, K 2.36, M 2.81, Y 2.31, V 2.58, L 2.79, T 2.42
S8: V 1.78, R 2.12, T 3.37, D 2.27, N 2.79, P 0.072, L 2.02, G 1.56, M 1.63, K 2.11, Q 1.82, A 1.68, F 1.8, E 1.66, H 2.12, W 1.13, I 1.77, Y 1.64
K21: H 2.82, M 3.11, S 3.19, Y 2.64, V 2.72, R 3.11, Q 3.11, I 2.82, P 1.11, L 3.22, A 3.41, D 3.08, F 2.66, T 2.85, W 2.55, E 3.18, N 2.96, G 3.06
E20: H 2.64, D 2, V 2.67, L 3.14, P 0.742, F 2.77, W 2.94, N 2.53, I 2.85, T 2.52, Q 2.86, M 3.06, G 2.13, C 2.81, Y 2.56, A 2.88, R 2.46, K 2.4, S 2.47
E10: Y 2.71, S 2.18, R 2.28, I 2.58, Q 2.67, G 2.21, K 2.46, T 2.04, D 2.76, C 3.04, P 1.88, H 2.5, L 2.51, W 2.93, F 2.69, N 2.17, M 2.59, A 2.86, V 2.58
G23: Q 1.67, Y 1.75, S 1.57, D 1.39, T 0.908, M 1.57, W 1.64, C 2.46, R 1.63, L 1.47, V 0.857, E 1.11, A 1.56, I 0.786, K 1.61, P 0.683, N 2.01, F 1.81, H 2.15
K13: Y 3.29, A 2.54, L 3.5, H 2.72, I 3.37, N 2.64, T 2.75, G 2.02, W 2.95, D 2.09, F 3.23, V 3.2, M 3.18, E 2.63, P 0.105, Q 2.97, S 2.45, C 3.06, R 3.13
E9: H 2.28, P 1.92, F 3.42, W 3.38, Y 3.58, G 1.03, D 1.47, A 2.01, S 1.42, T 0.823, M 2.38, I 2.73, N 1.26, Q 2.18, R 1.49, K 1.66, L 3.33, V 2.25
T25: L 2.77, D 1.97, K 3.13, A 2.83, F 2.43, H 3.16, V 3.09, I 2.99, E 2.28, Q 2.81, S 2.9, M 2.67, R 3.32, G 2.32, N 2.69, P 2.21
E11: N 1.96, A 2.75, H 1.61, F 1.47, K 2.21, P 0.769, T 1.75, L 2.4, Q 2.54, D 2.95, S 2.18, V 1.43, M 2.47, R 1.47, Y 1.46, W 1.28, I 1.46, G 2.34
K17: F 3.13, S 3.02, I 3.22, N 2.82, Q 3.08, P 0.527, T 2.91, V 3.15, E 3.17, A 3.25, R 3.13, H 2.98, Y 3.23, G 2.67, L 3.25, M 3.21, D 2.92, W 3.18
K14: A 3.29, D 2.9, I 3.07, W 3.02, V 2.94, E 3.15, M 3.23, F 3.02, G 2.5, L 3.23, Y 2.95, C 3.46, H 3.05, R 3.02, T 2.9, Q 3.23, N 3.05, P 0.356, S 2.89
A15: R 1.46, E 2.24, Q 2.08, S 2.18, D 1.13, W 3.37, V 2.91, Y 3.95, G 1.18, P 0.28, N 1.58, F 4.24, I 2.69, M 2.79, K 1.45, H 2.69, L 2.76, T 2.04
Q16: C 2.99, A 3.91, K 3.04, R 2.63, I 2.97, M 3.32, E 2.45, F 2.97, L 2.89, H 2.07, Y 2.83, D 0.725, T 2.27, S 2.69, P 0.25, W 2.53, V 3.18, G 2.99, N 0.943
R24: D 2.29, W 3.24, F 3.59, G 1.93, V 2.85, H 3, Y 3.62, N 2.13, K 3.01, P 0.456, I 3.23, M 3.32, T 2.22, A 2.56, E 2, Q 2.84, S 2.19, L 3.23
Q22: Y 2.73, T 2.82, E 3.06, D 2.88, G 2.58, M 3.24, I 2.83, R 2.84, P 1.55, F 2.79, S 2.92, C 3.26, A 3.08, W 2.8, V 2.81, N 3.02, H 2.99, L 3.19, K 2.73
A19: L 3.39, H 2.19, I 2.47, S 1.97, V 1.78, W 3.05, N 1.72, Q 2.13, D 1.41, Y 3.25, T 1.27, G 2.75, R 1.21, F 3.12, P 0.448, M 3.04, E 2.28, K 1.33
A12: S 1.06, V 1.98, E 0.203, W 0.806, P 0.214, G 0.827, M 1.9, R 0.086, Q 0.157, N 0.221, F 1.05, D 0.06, I 0.724, T 1.04, Y 1.08, L 1.49, H 0.139, K 0.241
D7: V 2.51, W 3.19, T 2.76, Y 3.18
